Reference: patent publication US20260167731A1

Legend:
human CCR8 (human) [1] = target: human CCR8 (human) (UniProt P51685); experiment: flow cytometry, hCCR8 transfected CHOK1 cells
human CCR8 (human) [2] = target: human CCR8 (human) (UniProt P51685); experiment: cell-based or functional assay

Row | % positive cells (human CCR8 (human) [1]) | MFI fold change to isotype ctrl (human CCR8 (human) [1]) | EC80 of hCCL1, hCCR8 Gi2 BRET, HEK-293 in suspension (protocol #1) (human CCR8 (human) [2]) | EC80 of hCCL1, hCCR8 Gi2 BRET, adherent HEK-293 (protocol #4) (human CCR8 (human) [2]) | Substance
1 | 86.5% | 19.8 fold | – | – | murine anti-human CCR8 monoclonal antibody L263G8
2 | – | – | 6 nM | 0.6 nM | hCCL1 (from UniProt P22362 24-96) (ligand)
